Reference: patent US11098109B2, “Single-chain variable fragment anti-CD133 antibodies and uses thereof” (REGENTS OF THE UNIVERSITY OF MINNESOTA, priority 2010, dated 2021)
Entries after “also recorded” stand apart in the source; their conditions may differ.

Experiments:
CD133 [1] = biological target: T1, CD133 (Homo sapiens, UniProt O43490); test: Flow cytometry of FITC-labeled CD133scFv on CD133-transfected HEK293-TLR2 cells; type: binding; conditions: CD133-transfected vs control HEK293-TLR2 cells; listed as CD133scFv
T1 construct: endogenous in cells
T1 sequence (O43490 20-865): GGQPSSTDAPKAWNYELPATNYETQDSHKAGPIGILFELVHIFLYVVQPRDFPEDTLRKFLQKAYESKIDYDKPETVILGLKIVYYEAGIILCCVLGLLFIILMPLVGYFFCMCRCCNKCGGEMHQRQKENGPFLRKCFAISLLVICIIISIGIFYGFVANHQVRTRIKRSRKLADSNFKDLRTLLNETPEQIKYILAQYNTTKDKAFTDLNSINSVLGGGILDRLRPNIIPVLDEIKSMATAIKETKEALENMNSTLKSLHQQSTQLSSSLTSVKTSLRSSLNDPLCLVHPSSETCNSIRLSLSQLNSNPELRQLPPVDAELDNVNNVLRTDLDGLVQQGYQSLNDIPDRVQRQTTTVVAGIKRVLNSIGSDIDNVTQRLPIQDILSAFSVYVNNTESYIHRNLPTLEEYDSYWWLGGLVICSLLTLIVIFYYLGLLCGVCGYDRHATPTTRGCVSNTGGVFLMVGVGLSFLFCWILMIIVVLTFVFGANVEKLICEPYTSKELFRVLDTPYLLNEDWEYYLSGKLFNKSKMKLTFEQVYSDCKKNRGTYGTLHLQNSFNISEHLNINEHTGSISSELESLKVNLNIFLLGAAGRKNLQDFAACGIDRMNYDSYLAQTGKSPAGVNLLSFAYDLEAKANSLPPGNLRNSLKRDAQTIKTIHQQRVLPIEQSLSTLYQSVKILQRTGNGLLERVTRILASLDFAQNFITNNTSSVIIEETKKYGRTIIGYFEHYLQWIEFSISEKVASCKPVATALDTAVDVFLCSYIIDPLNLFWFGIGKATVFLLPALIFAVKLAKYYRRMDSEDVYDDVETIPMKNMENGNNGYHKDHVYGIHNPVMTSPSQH
Description: FIG. 4: CD133scFV recognizes the CD133 marker. The CD133scFv was labeled with FITC. An oligonucleotide was prepared from the known GenBank sequence of CD133 and then transfected into HEK293-TLR2 cells using a polyethylenimine (PEI)-DNA complex. The cells were incubated with anti-CD133scFv-FITC complex, washed, and then analyzed by flow cytometry. Data are represented in standard histogram format whereby % positive cells are plotted against fluorescence intensity. […] Controls include transfected cells reacted with empty vector, transfected cells reacted with an isotype control, or untransfected cells that are not reacted with CD133-FITC.
Ult-Luc or CMV-CD133 pDNA constructs were transfected into HEK293-TLR2 cells using JetPEI transfection reagent according to the manufacturer's instructions (Polyplus Transfection). Briefly, 7.5×10^5 cells/well were seeded in a 6-well plate. Twelve hours later, 2.5 μg of each pDNA were diluted in 5 μl 5% dextrose and mixed with 0.35 μL JetPEI also in 5 μl 5% dextrose. Following incubation for 15 minutes, the transfection mix was added to the cells. […]
CD133scFv was labeled with FITC at a FITC:scFv ratio of 24:1 (Invitrogen, Carlsbad, Calif.) and dialyzed to remove any free unbound FITC. […] Data are represented in standard histogram format whereby % positive cells are plotted against fluorescence intensity. […]

CD133 [2] = biological target: T1, CD133; test: Flow cytometry of carcinoma lines with FITC-labeled anti-CD133 scFv; type: binding
Description: We detected about 5% CD133 cells/95% CD133-cells in the various carcinomas that we examined. […] The anti-CD133 scFV was labeled with FITC and then standard flow cytometry was performed. The levels of CD133 expression (4-7.1%) are in agreement with values reported values. CaCo-2 colorectal carcinoma is a cell line known to express high levels of CD133+ cells so we included it as a positive control. Anti-CD45-FITC and anti-CD19 FITC are negative controls that preferentially recognize hematopoietic cells.
CD133 expression on UMSCC-11B cells on head and neck cancer cells. CD133 expression was measured on the UMSCC-11B cell line using flow cytometery. Cells were reacted with anti-CD133scFV-FITC for 30 minutes in the dark on ice. Cells were then washed 3× using saline and studied using a flow cytometer (FACScanto™ II, BD Biosciences, Franklin Lakes, N.J.). The blank (untreated cells) was used to establish the gate of non-positive cell activity. CD133 was expressed on both head and neck cancer cell lines, NA and UMSC-11B, at 5.9% and 6% respectively (Table 13). The Caco-2 colorectal carcinoma was included as a positive control cell line since it known to overexpress CD133. Controls included cells reacted with anti-EpCam-FITC, anti-CD45-FITC, and anti-CD19-FITC. Expression of CD45 and CD19 is mostly restricted to normal malignant hematopoietic cells.

B1: No. 11 scFv: soluble scFv of the Hybridoma Clone 7 antibody expressed in E. coli Top10F', SEQ ID NO:58; also used FITC-labeled (protein)
scFv: MDIVLSQSPAIMSASPGEKVTISCSASSSVSYMYWYQQKPGSSPKPWIYRTSNLASGVPARFSGSGSGTSYSLTISSMEAEDAATYYCQQYHSYPPTFGAGTKLELKSSGGGGSGGGGGGSSRSSLEVKLVESGPELKKPGETVKISCKASGYTFTDYSMHWVNQAPGKGLKWMGWINTETGEPSYADDFKGRFAFSLETSASTAYLQINNLKNEDTATYFCATDYGDYFDYWGQGTTLTVSS
modifications: optionally FITC-labeled; scFv polypeptide
- reaction of FITC-labeled scFv with cells (CD133 [1]): Only the CD133-transfected cells reacted; also recorded: Only the CD133 transfected cells reacted
- % Positive Cells, CD133+ (CD133 [2]; BT474, breast): 4.0%
- % Positive Cells, CD133+ (CD133 [2]; Caco-2, colon, positive control line, listed as anti-CD133 scFV): 62.8%
- % Positive Cells, CD133+ (CD133 [2]; Caco-2, colon, positive control line, listed as anti-CD133scFV-FITC): 80.0%
- % Positive Cells, CD133+ (CD133 [2]; MDA-MB231, breast): 4.0%
- % Positive Cells, CD133+ (CD133 [2]; MDA-MD468, breast): 5.2%
- % Positive Cells, CD133+ (CD133 [2]; MiaPaCa-2, pancreas): 7.1%
- % Positive Cells, CD133+ (CD133 [2]; NA, head & neck): 5.9%
- % Positive Cells, CD133+ (CD133 [2]; SKBR3, breast): 4.2%
- % Positive Cells, CD133+ (CD133 [2]; UMSCC-11B, head & neck, listed as anti-CD133 scFV): 6.0%
- % Positive Cells, CD133+ (CD133 [2]; UMSCC-11B, head & neck, listed as anti-CD133scFV-FITC): 6%
- levels of CD133 expression (CD133 [2]; various carcinoma lines of Table 1): 4-7.1%
